Laboratory results: the supplement of paper PMC6757056
± gives the standard deviation of the averaged measurements.

B1: library; a variant is named by its letters at N, in order (parent)
chain: GCUGUCACCGAGAAACUGUGAAGUAUAUCUUAAACCUGGGCACUUAAAAGAUAUAUGGAGUUAGUAGUGCAACCUGCUCGGUCUGAUGAGUCCNNNNNNGGACGAAACAGC

Tests used:
[1] = variants of: B1; test: normalized RNA/DNA level without ligand (relative to sTRSVctl = 100) (log10 (% of sTRSVctl)); HEK293T; ligand: cyclic di-GMP (c-di-GMP-II aptamer); higher = less ribozyme self-cleavage, higher mRNA level; conditions: reporter: mCherry (pCS4076), ligand present: no
Method in brief: (§1)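 HEK293T cells were transfected with library plasmids carrying ribozyme switches linked to an mCherry reporter, or an eGFP reporter in some ligand experiments, at 4 µg per well of a 6-well plate, with any ligand added 1 h beforehand. After 72 h, total RNA was extracted with EDTA, reverse-transcribed, amplified, barcoded and sequenced. RNA level was defined as RNA reads over DNA reads, normalized to a spiked-in non-cleaving sequence or to the top-ranked sequences. That value was multiplied by 100 and converted to log10, the top set was 25 sequences, and only sequences with ≥100 DNA reads were retained.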

[2] = variants of: B1; test: normalized RNA/DNA level with ligand (relative to sTRSVctl = 100) (log10 (% of sTRSVctl)); HEK293T; ligand: cyclic di-GMP (c-di-GMP-II aptamer); ligand concentration (+) RNA-Seq: 1 mM; higher = less ribozyme self-cleavage, higher mRNA level; conditions: reporter: mCherry (pCS4076), ligand present: yes
Method in brief: as §1

Row | Variant | normalized RNA/DNA level without ligand (log10) [1] | normalized RNA/DNA level with ligand (log10) [2]
1 | AACGUG | 1.55 ± 0.083 | 1.7 ± 0.096
2 | AAUAAU | 1.63 ± 0.051 | 1.8 ± 0.077
3 | UUUCCG | 1.8104 ± 0.0015 | 1.92 ± 0.056
4 | CCGUCU | 1.6 ± 0.061 | 1.78 ± 0.12
5 | GGUGAA | 1.34 ± 0.076 | 1.61 ± 0.07
6 | GGUUAA | 1.54 ± 0.11 | 1.67 ± 0.029
7 | UUGUGC | 1.75 ± 0.027 | 1.86 ± 0.052
8 | UCGUGA | 1.47 ± 0.082 | 1.73 ± 0.09
9 | UGCACU | 1.74 ± 0.021 | 1.87 ± 0.094
10 | CGGCUG | 1.74 ± 0.087 | 1.87 ± 0.12
11 | UCACGG | 1.82 ± 0.07 | 1.9 ± 0.1
12 | AUCAUG | 1.62 ± 0.019 | 1.78 ± 0.11
13 | CGUAUU | 1.33 ± 0.083 | 1.57 ± 0.11
14 | GCUACU | 1.66 ± 0.019 | 1.81 ± 0.1
15 | UUAUUG | 1.7 ± 0.026 | 1.83 ± 0.16
16 | GUGCAC | 1.729 ± 0.0059 | 1.83 ± 0.17
17 | CUCGGG | 1.76 ± 0.031 | 1.88 ± 0.085
18 | UCGUUU | 1.68 ± 0.042 | 1.85 ± 0.11
19 | GACGAG | 1.56 ± 0.091 | 1.71 ± 0.071
20 | UAUGCU | 1.72 ± 0.043 | 1.86 ± 0.11
21 | CUCAAC | 1.66 ± 0.033 | 1.8 ± 0.1
22 | UACGUA | 1.64 ± 0.018 | 1.8 ± 0.056
23 | UCGGGU | 1.64 ± 0.09 | 1.79 ± 0.13
24 | CUCCGC | 1.78 ± 0.019 | 1.91 ± 0.073

Row | Variant | normalized RNA/DNA level without ligand (log10) [1] | normalized RNA/DNA level with ligand (log10) [2]
25 | GUCGGC | 1.65 ± 0.067 | 1.83 ± 0.053
26 | AUUGCA | 1.67 ± 0.055 | 1.81 ± 0.095
27 | AUAUGU | 1.623 ± 0.0061 | 1.8 ± 0.15
28 | AGGGCG | 1.78 ± 0.0082 | 1.84 ± 0.11
29 | GCUCCG | 1.79 ± 0.028 | 1.92 ± 0.13
30 | CAGUCG | 1.76 ± 0.067 | 1.9 ± 0.12
31 | UUGUCG | 1.79 ± 0.032 | 1.89 ± 0.05
32 | AUAGCG | 1.73 ± 0.02 | 1.85 ± 0.15
33 | AGAUUC | 1.7 ± 0.021 | 1.85 ± 0.093
34 | ACGAUA | 1.45 ± 0.05 | 1.68 ± 0.12
35 | UGAGAC | 1.71 ± 0.022 | 1.8 ± 0.093
36 | CACAAG | 1.66 ± 0.017 | 1.83 ± 0.11
37 | GCACGU | 1.49 ± 0.07 | 1.7 ± 0.12
38 | AAGCAU | 1.655 ± 0.0071 | 1.82 ± 0.1
39 | UGACCC | 1.798 ± 0.013 | 1.89 ± 0.087
40 | UGUCGC | 1.76 ± 0.049 | 1.85 ± 0.15
41 | AGCAGU | 1.689 ± 0.0032 | 1.84 ± 0.13
42 | UAAGGU | 1.579 ± 0.013 | 1.77 ± 0.073
43 | CCAGCC | 1.762 ± 0.0075 | 1.86 ± 0.13
44 | CUGCCG | 1.78 ± 0.011 | 1.92 ± 0.064
45 | CUCACU | 1.57 ± 0.052 | 1.77 ± 0.092
46 | GCUAAA | 1.46 ± 0.085 | 1.67 ± 0.11
47 | UGCCCU | 1.79 ± 0.021 | 1.89 ± 0.057
48 | UGCGGC | 1.757 ± 0.0021 | 1.9 ± 0.12

Row | Variant | normalized RNA/DNA level without ligand (log10) [1] | normalized RNA/DNA level with ligand (log10) [2]
49 | CUCAGU | 1.75 ± 0.018 | 1.83 ± 0.07
50 | UACAGG | 1.65 ± 0.044 | 1.82 ± 0.081
51 | GAUGUG | 1.71 ± 0.032 | 1.8 ± 0.1
52 | CUUUUA | 1.42 ± 0.12 | 1.66 ± 0.07
53 | ACAGUG | 1.51 ± 0.11 | 1.68 ± 0.067
54 | CCCGGC | 1.75 ± 0.031 | 1.88 ± 0.07
55 | CAUAAC | 1.62 ± 0.028 | 1.75 ± 0.1
56 | UGGCUC | 1.78 ± 0.047 | 1.92 ± 0.077
57 | CUAUCA | 1.538 ± 0.014 | 1.74 ± 0.038
58 | CUGCCA | 1.613 ± 0.0037 | 1.76 ± 0.18
59 | GAGAGG | 1.746 ± 0.016 | 1.82 ± 0.11
60 | UAUGAG | 1.653 ± 0.0081 | 1.82 ± 0.12
61 | GAUACG | 1.62 ± 0.019 | 1.76 ± 0.12
62 | CCGUUA | 1.36 ± 0.096 | 1.59 ± 0.15
63 | AAGUUG | 1.56 ± 0.072 | 1.75 ± 0.11
64 | UCUCCU | 1.77 ± 0.003 | 1.91 ± 0.14
65 | CCCCAG | 1.679 ± 0.008 | 1.82 ± 0.11
66 | GUACCU | 1.73 ± 0.029 | 1.83 ± 0.13
67 | AGGGGG | 1.72 ± 0.026 | 1.81 ± 0.075
68 | AUGCAA | 1.52 ± 0.029 | 1.66 ± 0.12
69 | UUCAAA | 1.611 ± 0.0055 | 1.79 ± 0.057
70 | GCUGUC | 1.43 ± 0.14 | 1.72 ± 0.024
71 | CGCAGC | 1.75 ± 0.027 | 1.87 ± 0.074
72 | AAUAUA | 1.53 ± 0.054 | 1.72 ± 0.13

Row | Variant | normalized RNA/DNA level without ligand (log10) [1] | normalized RNA/DNA level with ligand (log10) [2]
73 | UGAUUC | 1.71 ± 0.019 | 1.86 ± 0.08
74 | CUCCCC | 1.82 ± 0.032 | 1.9 ± 0.089
75 | UCGUCU | 1.72 ± 0.043 | 1.89 ± 0.094
76 | AGCAUA | 1.52 ± 0.083 | 1.73 ± 0.074
77 | GUUUCC | 1.82 ± 0.07 | 1.88 ± 0.15
78 | UGGUCU | 1.75 ± 0.048 | 1.91 ± 0.11
79 | CGAACC | 1.679 ± 0.01 | 1.8 ± 0.098
80 | CCCACU | 1.624 ± 0.014 | 1.83 ± 0.12
81 | UAGAGG | 1.67 ± 0.087 | 1.82 ± 0.1
82 | AAGGAU | 1.49 ± 0.097 | 1.7 ± 0.096
83 | GGUUUU | 1.7 ± 0.015 | 1.84 ± 0.077
84 | GAUCCC | 1.79 ± 0.027 | 1.89 ± 0.082
85 | UGUUCC | 1.84 ± 0.052 | 1.94 ± 0.14
86 | GUACAC | 1.67 ± 0.03 | 1.79 ± 0.1
87 | GUAUUA | 1.578 ± 0.0077 | 1.75 ± 0.1
88 | AAUAUC | 1.67 ± 0.022 | 1.81 ± 0.079
89 | UCAGAA | 1.35 ± 0.17 | 1.65 ± 0.14
90 | ACCUGC | 1.71 ± 0.029 | 1.85 ± 0.076
91 | CUAGCU | 1.72 ± 0.027 | 1.85 ± 0.13
92 | UAGCUU | 1.68 ± 0.055 | 1.81 ± 0.073
93 | GUGGCG | 1.85 ± 0.022 | 1.87 ± 0.094
94 | CCUCCA | 1.68 ± 0.031 | 1.83 ± 0.088
95 | CACGCC | 1.81 ± 0.044 | 1.86 ± 0.022
96 | ACACCA | 1.59 ± 0.029 | 1.76 ± 0.11

Row | Variant | normalized RNA/DNA level without ligand (log10) [1] | normalized RNA/DNA level with ligand (log10) [2]
97 | AGGCUA | 1.51 ± 0.084 | 1.65 ± 0.095
98 | UCGAUG | 1.54 ± 0.1 | 1.72 ± 0.14
99 | UGAAAG | 1.77 ± 0.047 | 1.87 ± 0.1
100 | GCCUGA | 1.6 ± 0.036 | 1.77 ± 0.069
101 | CCUGGG | 1.72 ± 0.018 | 1.82 ± 0.18
102 | GUGUAU | 1.6 ± 0.018 | 1.78 ± 0.14
103 | CUUCAG | 1.732 ± 0.0075 | 1.81 ± 0.067
104 | CUACAU | 1.57 ± 0.047 | 1.72 ± 0.13
105 | CGGCCC | 1.937 ± 0.016 | 1.94 ± 0.061
106 | UCCCCG | 1.82 ± 0.03 | 1.96 ± 0.11
107 | AAGAUU | 1.63 ± 0.043 | 1.8 ± 0.054
108 | UCGCGG | 1.78 ± 0.051 | 1.85 ± 0.14
109 | CCCUGU | 1.75 ± 0.043 | 1.87 ± 0.13
110 | CAUUCG | 1.83 ± 0.091 | 1.95 ± 0.14
111 | ACUUUG | 1.59 ± 0.037 | 1.76 ± 0.12
112 | UGGAAG | 1.68 ± 0.026 | 1.81 ± 0.17
113 | AGAUUU | 1.66 ± 0.052 | 1.81 ± 0.17
114 | GGCACU | 1.73 ± 0.12 | 1.885 ± 0.0081
115 | GGGAAG | 1.63 ± 0.069 | 1.7145 ± 0.00089
116 | UUAUAG | 1.71 ± 0.046 | 1.8 ± 0.11
